From article PMC9279154 (Nature, 2022)

B2: Dcr-2(D1217N/D1476N), catalytically inactive mutant (enzyme, Drosophila melanogaster, UniProt A1ZAW0 1-1722, looked up)
chain: MEDVEIKPRGYQLRLVDHLTKSNGIVYLPTGSGKTFVAILVLKRFSQDFDKPIESGGKRALFMCNTVELARQQAMAVRRCTNFKVGFYVGEQGVDDWTRGMWSDEIKKNQVLVGTAQVFLDMVTQTYVALSSLSVVIIDECHHGTGHHPFREFMRLFTIANQTKLPRVVGLTGVLIKGNEITNVATKLKELEITYRGNIITVSDTKEMENVMLYATKPTEVMVSFPHQEQVLTVTRLISAEIEKFYVSLDLMNIGVQPIRRSKSLQCLRDPSKKSFVKQLFNDFLYQMKEYGIYAASIAIISLIVEFDIKRRQAETLSVKLMHRTALTLCEKIRHLLVQKLQDMTYDDDDDNVNTEEVIMNFSTPKVQRFLMSLKVSFADKDPKDICCLVFVERRYTCKCIYGLLLNYIQSTPELRNVLTPQFMVGRNNISPDFESVLERKWQKSAIQQFRDGNANLMICSSVLEEGIDVQACNHVFILDPVKTFNMYVQSKGRARTTEAKFVLFTADKEREKTIQQIYQYRKAHNDIAEYLKDRVLEKTEPELYEIKGHFQDDIDPFTNENGAVLLPNNALAILHRYCQTIPTDAFGFVIPWFHVLQEDERDRIFGVSAKGKHVISINMPVNCMLRDTIYSDPMDNVKTAKISAAFKACKVLYSLGELNERFVPKTLKERVASIADVHFEHWNKYGDSVTATVNKADKSKDRTYKTECPLEFYDALPRVGEICYAYEIFLEPQFESCEYTEHMYLNLQTPRNYAILLRNKLPRLAEMPLFSNQGKLHVRVANAPLEVIIQNSEQLELLHQFHGMVFRDILKIWHPFFVLDRRSKENSYLVVPLILGAGEQKCFDWELMTNFRRLPQSHGSNVQQREQQPAPRPEDFEGKIVTQWYANYDKPMLVTKVHRELTPLSYMEKNQQDKTYYEFTMSKYGNRIGDVVHKDKFMIEVRDLTEQLTFYVHNRGKFNAKSKAKMKVILIPELCFNFNFPGDLWLKLIFLPSILNRMYFLLHAEALRKRFNTYLNLHLLPFNGTDYMPRPLEIDYSLKRNVDPLGNVIPTEDIEEPKSLLEPMPTKSIEASVANLEITEFENPWQKYMEPVDLSRNLLSTYPVELDYYYHFSVGNVCEMNEMDFEDKEYWAKNQFHMPTGNIYGNRTPAKTNANVPALMPSKPTVRGKVKPLLILQKTVSKEHITPAEQGEFLAAITASSAADVFDMERLEILGNSFLKLSATLYLASKYSDWNEGTLTEVKSKLVSNRNLLFCLIDADIPKTLNTIQFTPRYTWLPPGISLPHNVLALWRENPEFAKIIGPHNLRDLALGDEESLVKGNCSDINYNRFVEGCRANGQSFYAGADFSSEVNFCVGLVTIPNKVIADTLEALLGVIVKNYGLQHAFKMLEYFKICRADIDKPLTQLLNLELGGKKMRANVNTTEIDGFLINHYYLEKNLGYTFKDRRYLLQALTHPSYPTNRITGSYQELEFIGNAILDFLISAYIFENNTKMNPGALTDLRSALVNNTTLACICVRHRLHFFILAENAKLSEIISKFVNFQESQGHRVTNYVRILLEEADVQPTPLDLDDELDMTELPHANKCISQEAEKGVPPKGEFNMSTNVDVPKALGDVLEALIAAVYLDCRDLQRTWEVIFNLFEPELQEFTRKVPINHIRQLVEHKHAKPVFSSPIVEGETVMVSCQFTCMEKTIKVYGFGSNKDQAKLSAAKHALQQLSKCDA
notes: Dicer-2 (Dcr-2), Drosophila melanogaster, UniProt A1ZAW0, full length with D1217N and D1476N; also called Dcr-2(DDNN); Dcr-2^DDNN; source: sf9 cells (Bac-to-Bac baculovirus), purified (Ni-NTA, Hitrap Q, 2nd Ni-NTA, SEC)

How the values were obtained:
[1] = molecular target: Dcr-2 DDNN;Loqs-PD (Drosophila melanogaster;Drosophila …, UniProt A1ZAW0;Q9VJY9-4 1-1722;1-359, D1217N;D1476N|); test: cryo-EM; no ATP; initial binding state, dimer, 3.1 A; Cryo-EM and EMSA buffers not given in the material; with or without ATP and Mg2+; conditions: protein: recombinant;recombinant; tags: Ni-NTA purified;6xHis-SUMO removed by ULP1; copies: 1;1; 3' overhang 2 nt (UU) at both ends; 50 bp; self-complementary, 2 copies of one strand
[2] = molecular target: Dcr-2 WT;Loqs-PD (Drosophila melanogaster;Drosophila …, UniProt A1ZAW0;Q9VJY9-4 1-1722;1-359, |); test: cryo-EM; ATP, Mg2+; post-dicing state, RNA cleaved 21 bp from terminus, 4.6 A; Cryo-EM and EMSA buffers not given in the material; with or without ATP and Mg2+; conditions: protein: recombinant;recombinant; tags: Ni-NTA purified;6xHis-SUMO removed by ULP1; copies: 1;1; 3' overhang 2 nt (UU) at both ends; 50 bp; self-complementary, 2 copies of one strand
[3] = molecular target: Dcr-2 delta-dsRBD;Loqs-PD (Drosophila melanogaster;Drosophila …, UniProt A1ZAW0;Q9VJY9-4 1-1628;1-359, |); test: cryo-EM; ATP, Mg2+; no further dsRNA bending; Cryo-EM and EMSA buffers not given in the material; with or without ATP and Mg2+; conditions: protein: recombinant;recombinant; tags: Ni-NTA purified;6xHis-SUMO removed by ULP1; copies: 1;1; 3' overhang 2 nt (UU) at both ends; 50 bp; self-complementary, 2 copies of one strand
[4] = molecular target: the molecule itself; test: cryo-EM structure; Dcr-2^DDNN–Loqs-PD with 50 bp dsRNA, without ATP: initial dsRNA-binding state (dimer), 3.1 Å
[5] = molecular target: T1, Drosophila melanogaster Dicer-2 (Dcr-2), wild type (Drosophila melanogaster, UniProt A1ZAW0 1-1722); test: cryo-EM structure; Dcr-2^DDNN–Loqs-PD in the apo state (no dsRNA, no ATP); Dcr-2^DDNN–Loqs-PD with 50 bp dsRNA, ATP and Mg2+ (early-translocation, mid-translocation and active dicing states); WT Dcr-2–Loqs-PD with 50 bp dsRNA, ATP and Mg2+ (post-dicing state); conditions: both partners purified
T1 construct: Dicer-2 (Dcr-2), Drosophila melanogaster, UniProt A1ZAW0, full length; The pull-down methods call it 'untagged Dcr-2'; also called WT Dcr-2; Dcr-2^WT; source: sf9 cells (Bac-to-Bac baculovirus), purified (Ni-NTA, Hitrap Q, 2nd Ni-NTA, SEC)

[6] = molecular target: B2; test: cryo-EM structure; Dcr-2^DDNN–Loqs-PD with 50 bp dsRNA, without ATP: initial dsRNA-binding state (dimer), 3.1 Å; conditions: both partners purified
[7] = molecular target: T1, Drosophila melanogaster Dicer-2 …; test: pull-down; 1.25 μM His-tagged Loqs-PD and 0.6 μM untagged Dcr-2 mixed on ice for 30 min, then Ni-NTA agarose; 200 mM NaCl, 20 mM Tris pH 8.0, 5% glycerol, 20 mM imidazole, 4 °C, 1 h; SDS–PAGE; conditions: both partners purified

B1: 50 bp palindromic dsRNA (dsRNA)
RNA 1: GAGACUUGGGCAAUGUGACUGCUGAUCAGCAGUCACAUUGCCCAAGUCUCUU
RNA 2: GAGACUUGGGCAAUGUGACUGCUGAUCAGCAGUCACAUUGCCCAAGUCUCUU
modifications: 5'-monophosphate on both strands
B1: binds [1]; binds [2]; binds [3].

B2 was tested, and the “stoichiometry N” value [4] was 2.

B3: Drosophila melanogaster Loquacious-PD (Loqs-PD), full length, tag removed (natural protein, UniProt Q9VJY9-4 1-359, looked up)
chain: MDQENFHGSSLPQQLQNLHIQPQQASPNPVQTGFAPRRHYNNLVGLGNGNAVSGSPVKGAPLGQRHVKLKKEKISAQVAQLSQPGQLQLSDVGDPALAGGSGLQGGVGLMGVILPSDEALKFVSETDANGLAMKTPVSILQELLSRRGITPGYELVQIEGAIHEPTFRFRVSFKDKDTPFTAMGAGRSKKEAKHAAARALIDKLIGAQLPESPSSSAGPSVTGLTVAGSGGDGNANATGGGDASDKTVGNPIGWLQEMCMQRRWPPPSYETETEVGLPHERLFTIACSILNYREMGKGKSKKIAKRLAAHRMWMRLQETPIDSGKISDSICGELEGEVSIIQDIDRYEQVSKDFEFIKI
notes: Loquacious-PD (Loqs-PD), Drosophila melanogaster, UniProt M9MRT5, full length (C-terminal residue Ile359); also called DmLoqs-PD; Loqs-PD^FL; source: E. coli BL21 (DE3), purified (Ni-NTA, ULP1 cleavage, 2nd Ni-NTA, SEC)
B3: binds [5]; binds [6].

B4: His-tagged Loqs-PD, wild type (natural protein, Drosophila melanogaster, UniProt Q9VJY9-4 1-359, looked up)
chain: MDQENFHGSSLPQQLQNLHIQPQQASPNPVQTGFAPRRHYNNLVGLGNGNAVSGSPVKGAPLGQRHVKLKKEKISAQVAQLSQPGQLQLSDVGDPALAGGSGLQGGVGLMGVILPSDEALKFVSETDANGLAMKTPVSILQELLSRRGITPGYELVQIEGAIHEPTFRFRVSFKDKDTPFTAMGAGRSKKEAKHAAARALIDKLIGAQLPESPSSSAGPSVTGLTVAGSGGDGNANATGGGDASDKTVGNPIGWLQEMCMQRRWPPPSYETETEVGLPHERLFTIACSILNYREMGKGKSKKIAKRLAAHRMWMRLQETPIDSGKISDSICGELEGEVSIIQDIDRYEQVSKDFEFIKI
notes: Loquacious-PD (Loqs-PD), Drosophila melanogaster, UniProt M9MRT5, full length; The only construct described is in a modified pET28a with a 6×His-SUMO tag; also called WT; source: E. coli BL21 (DE3), purified
B4: binds [7].
